Data: the supplement of paper PMC10567573

B1: CCDC6 (parent)
chain: TLFKKIQALQKEKETLAVNYEKEE

Variants of: B1
Assay: protein stability index of a GFP-peptide fusion (GPS, HEK-293T) (PSI 1-6); higher = more stable
Settings: c terminus: a fixed tail appended
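Note: lentivirally expressed fusions sorted by FACS into six bins by GFP to DsRed ratio, PSI derived from sequencing read proportions per bin multiplied by bin number.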

Protein stability index: each site, then its substitutions
T15: I 3.98; G 3.25; S 2.91; H 2.76; M 2.85; V 3.42; K 3.3; D 3.89; F 2.06; E 3.77; W 1.92; Q 2.98; L 2.54; Y 3.08; C 2.84
Q10: A 3.17; T 3.79; H 3.3; V 2.91; F 2.2; L 2.45; W 2.65; N 2.89; Y 2.64; G 3.89; E 4.41; D 4.41; I 2.35; S 3.41; P 3.99; K 3.08; R 2.64; M 2.42; C 3.17
L2: Y 3.74; M 4.28; R 5.13; N 5.26; P 5.29; S 4.83; I 3.4; V 3.82; F 4.25; G 5.25; Q 4.91; H 4.96; W 3.68; D 5.26; A 4.08; K 5.2; T 5.1; C 4.55; E 5.56
E12: K 2.59; M 2.49; L 1.97; A 2.66; V 2.52; Y 2.11; D 3.37; W 1.81; T 2.62; Q 2.64; R 2.75; F 1.85; I 2.27; S 2.63; P 3.66; G 3.05; H 2.63; C 2.1; N 3.09
L9: M 2.74; P 5.08; K 4.35; W 3.5; E 4.37; F 3.46; H 3.88; N 4.55; T 4.6; R 4.25; Q 4.48; I 3.57; D 4.67; V 4.22; S 4.05; Y 3.23; A 3.92; G 3.92; C 4.33
A8: F 3.54; I 3.4; Q 3.23; K 3.88; L 3.4; P 4.25; Y 2.75; V 4.34; G 3.72; T 3.49; W 2.75; E 4.05; R 3.38; C 3.15; N 3.75; D 3.51; H 3.25; S 3.47; M 2.69
Q7: K 3.31; I 2.6; R 2.98; C 2.73; L 2.71; G 3.51; A 2.85; F 2.3; V 2.7; S 3.65; E 3.57; P 4.7; D 4.38; T 3.54; W 1.99; Y 2.55; M 2.73; H 3.18; N 4.02
K5: P 4.74; D 4.85; C 2.52; G 4.19; V 1.76; H 2.88; L 2.27; R 2.75; F 1.61; M 2.22; I 1.79; W 3.67; Q 3.36; N 3.78; S 3.47; A 2.43; T 2.95; E 4.27; Y 2.15
K4: M 2.8; S 3.82; G 3.75; E 3.33; L 3.05; H 3.88; P 4.83; V 3.52; Q 3.56; W 2.74; A 3.01; D 4.37; N 3.68; I 2.76; Y 2.58; R 3.35; F 3.44; T 4.27; C 2.73
